Test results taken from PMC10706732.

Target: Human ceruloplasmin (human) (UniProt P00450)
Test: SPR; Biacore X100; human CP immobilised on CM5 chip by EDC/NHS (3.3 ng/mm2); LF or LF/8OA as analyte in HBS-P+ (150 mM NaCl, 10 mM Hepes pH 7.5, 0.05% polyoxyethylene sorbitan), 30 uL/min; 1:1 Langmuir model

UniProt P00450, sequence (P00450 20-1065): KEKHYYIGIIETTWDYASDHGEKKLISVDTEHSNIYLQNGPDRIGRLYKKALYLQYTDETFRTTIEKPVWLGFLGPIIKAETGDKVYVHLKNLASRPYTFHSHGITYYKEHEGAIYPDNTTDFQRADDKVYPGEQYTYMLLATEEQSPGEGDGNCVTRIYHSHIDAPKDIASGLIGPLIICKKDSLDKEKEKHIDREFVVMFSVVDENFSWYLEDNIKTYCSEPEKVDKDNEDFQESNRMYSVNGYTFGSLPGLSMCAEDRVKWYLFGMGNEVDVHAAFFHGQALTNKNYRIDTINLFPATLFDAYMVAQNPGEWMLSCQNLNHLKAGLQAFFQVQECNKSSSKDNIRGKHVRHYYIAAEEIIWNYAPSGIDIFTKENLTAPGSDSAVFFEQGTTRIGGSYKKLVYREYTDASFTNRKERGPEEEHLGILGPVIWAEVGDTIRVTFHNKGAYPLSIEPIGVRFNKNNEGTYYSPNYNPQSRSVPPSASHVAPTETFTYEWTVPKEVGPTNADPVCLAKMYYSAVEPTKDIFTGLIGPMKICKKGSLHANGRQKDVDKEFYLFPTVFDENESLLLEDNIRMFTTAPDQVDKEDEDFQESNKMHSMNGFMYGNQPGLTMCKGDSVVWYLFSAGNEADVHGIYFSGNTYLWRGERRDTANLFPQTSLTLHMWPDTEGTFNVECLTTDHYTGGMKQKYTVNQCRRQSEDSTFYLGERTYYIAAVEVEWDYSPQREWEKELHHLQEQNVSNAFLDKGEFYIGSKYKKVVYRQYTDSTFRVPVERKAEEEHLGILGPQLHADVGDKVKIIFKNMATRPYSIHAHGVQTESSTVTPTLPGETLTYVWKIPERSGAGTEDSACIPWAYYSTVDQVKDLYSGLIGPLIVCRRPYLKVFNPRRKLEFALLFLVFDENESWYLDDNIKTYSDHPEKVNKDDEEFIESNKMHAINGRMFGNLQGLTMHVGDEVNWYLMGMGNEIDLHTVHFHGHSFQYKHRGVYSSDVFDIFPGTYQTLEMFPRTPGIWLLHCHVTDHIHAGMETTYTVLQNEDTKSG

| Kd [nM] | Substance |
| --- | --- |
| 367 | Recombinant human lactoferrin (natural protein) |
| 407 | Complex formed by one human lactoferrin molecule and eight molecules of oleic acid |
